In patent US7189689:

Each binder was assayed against T1, lecithin:cholesterol acyltransferase (LCAT), purified from human plasma (human, UniProt P04180 25-440) (assay: cell-based or functional assay).
T1 sequence (looked up): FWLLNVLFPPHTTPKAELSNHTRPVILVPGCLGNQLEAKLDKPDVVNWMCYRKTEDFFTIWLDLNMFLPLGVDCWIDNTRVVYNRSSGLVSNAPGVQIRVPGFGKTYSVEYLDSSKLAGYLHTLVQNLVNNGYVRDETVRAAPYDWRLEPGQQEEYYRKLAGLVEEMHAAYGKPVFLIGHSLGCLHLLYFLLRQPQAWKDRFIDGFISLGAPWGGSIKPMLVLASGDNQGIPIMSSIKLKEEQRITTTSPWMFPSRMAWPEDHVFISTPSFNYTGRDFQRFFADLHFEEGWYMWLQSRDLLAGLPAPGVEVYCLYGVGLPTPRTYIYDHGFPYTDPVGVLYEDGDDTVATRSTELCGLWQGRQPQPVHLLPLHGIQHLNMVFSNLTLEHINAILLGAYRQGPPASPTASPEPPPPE
DWFKAFYDKVFEKFKEFF [peptide 237] was tested, and the “ACTIVITY (%) LCAT” value was 11%. With DWLKAFYDKVFEKFKEFF [peptide 241] the “ACTIVITY (%) LCAT” value was 8%. For EWLEAFYKKVLEKLKELF [peptide 242], the “ACTIVITY (%) LCAT” value was 7%. For DWFKAFYDKFFEKFKEFF [peptide 243], the “ACTIVITY (%) LCAT” value was 5%. For EWLKAFYEKVLEKLKELF [peptide 244], the “ACTIVITY (%) LCAT” value was 5%. In the case of EWLKAEYEKVEEKLKELF [peptide 245], the “ACTIVITY (%) LCAT” value is reported as 4%. In the case of EWLKAEYEKVLEKLKELF [peptide 246], the “ACTIVITY (%) LCAT” value is reported as 4%. With EWLKAFYKKVLEKLKELF [peptide 247] the “ACTIVITY (%) LCAT” value was 3%.
